Target: T1, RAF1 (endogenous, pMECs) (mouse (endogenous in pMECs), UniProt Q99N57 1-648)
T1 construct: RAF1 kinase, endogenous in primary mouse endothelial cells; source: endogenous, pMEC lysate
Assay: co-IP; RAF1 immunoprecipitates from lysates of F/F and BRAFΔ/Δ pMEC monolayers; Protein G Sepharose with antibody, 4 °C overnight; 25 mM HEPES, 150 mM NaCl, 1 mM EGTA, 0.5% NP-40, 10% glycerol; immunoblot
Details: partners not purified

B1: RHO‐dependent kinase α (enzyme, mouse (endogenous in pMECs), UniProt P70336 1-1388, looked up)
chain: MSRPPPTGKMPGAPEAAPGDGAGAGRQRKLEALIRDPRSPINVESLLDGLNSLVLDLDFPALRKNKNIDNFLNRYEKIVKKIRGLQMKAEDYDVVKVIGRGAFGEVQLVRHKASQKVYAMKLLSKFEMIKRSDSAFFWEERDIMAFANSPWVVQLFCAFQDDRYLYMVMEYMPGGDLVNLMSNYDVPEKWAKFYTAEVVLALDAIHSMGLIHRDVKPDNMLLDKHGHLKLADFGTCMKMDETGMVHCDTAVGTPDYISPEVLKSQGGDGYYGRECDWWSVGVFLFEMLVGDTPFYADSLVGTYSKIMDHKNSLCFPEDTEISKHAKNLICAFLTDREVRLGRNGVEEIKQHPFFKNDQWNWDNIRETAAPVVPELSSDIDSSNFDDIEDDKGDVETFPIPKAFVGNQLPFIGFTYFRENLLLSDSPPCRENDAIQTRKSEESQEIQKKLYALEEHLSSEVQAKEELEQKCKSINTRLEKTAKELEEEITLRKSVESTLRQLEREKALLQHKNAEYQRKADHEADKKRNLENDVNSLKDQLEDLKKRNQSSQISTEKVNQLQKQLDEANALLRTESDTAARLRKTQAESSKQIQQLESNNRDLQDKNCLLETAKLKLEKEFINLQSALESERRDRTHGSEIINDLQGRISGLEEDLKTGKALLAKVELEKRQLQEKLTDLEKEKSNMEIDMTYQLKVIQQSLEQEEAEHKTTKARLADKNKIYESIEEAKSEAMKEMEKKLLEERSLKQKVENLLLEAEKRCSILDCDLKQSQQKLNELLKQKDVLNEDVRNLTLKIEQETQKRCLMQNDLKMQTQQVNTLKMSEKQIKQENNHLMEMKMNLEKQNTELRKERQDADGQMKELQDQLEAEQYFSTLYKTQVRELKEENEEKTKLCKELQQKKQDLQDERDSLAAQLEITLTKADSEQLARSIAEEQYSDLEKEKIMKELEIKEMMARHKQELTEKDTTIASLEETNRTLTSDVANLANEKEELNNKLKDSQEQLSKLKDEEMSAAAIKAQFEKQLLNERTLKTQAVNKLAEIMNRKEPVKRGSDTDVRRKEKENRKLHMELKSEREKLTQQMIKYQKELNEMQAQIAEESQIRIELQMTLDSKDSDIEQLRSQLQALHIGMDSSSIGSGPGDAEPDDGFPESRLEGWLSLPVRNNTKKFGWVKKYVIVSSKKILFYDSEQDKEQSNPYMVLDIDKLFHVRPVTQTDVYRADAKEIPRIFQILYANEGESKKEPEFPVEPVGEKSNYICHKGHEFIPTLYHFPTNCEACMKPLWHMFKPPPALECRRCHIKCHKDHMDKKEEIIAPCKVYYDISSAKNLLLLANSTEEQQKWVSRLVKKIPKKPPAPDPFARSSPRTSMKIQQNQSIRRPSRQLAPNKPS
notes: ROKalpha (ROCK2), endogenous in primary mouse endothelial cells; also called ROKα; ROK; source: endogenous, pMEC lysate
fold increase of the co-precipitate in BRAF-deficient against F/F pMECs: 3 fold
